The target in experiment [1] is membrane-anchored iLID (improved Light Induced Dimerization protein with an N-terminal TatA-derived transmembrane helix) (Avena sativa). The experiment is described as follows: 3D single-molecule tracking in live cells.
Experiment [2] has the same target.
Experiment [3] shares this target. The experiment is described as follows: 3D single-molecule tracking in live cells. This is another data set of the same source.
Experiment [4] has the same target. Nature of the experiment: 3D single-molecule tracking in live cells. This is another data set of the same source.
For experiment [5] the target is unchanged. The experiment is described as follows: 3D single-molecule tracking in live cells. This is another data set of the same source.
Experiment [6] shares this target. This is another data set of the same source.

Where two headings read alike, the source gives them in different places. Bounds are passed on as bounds.

Usually Kd stands for the constant that tells how readily two partners part at equilibrium. A high value points to lower affinity. SspB_(micro)-Halo labelled with JFX549 registered a fraction iLID-associated in experiment [1] of 48%. The same substance returned a median bound time t (bound) in experiment [2] of 300 ms. Further, in experiment [3], the fraction iLID-associated was 31%. Moreover, in experiment [4], the dissociation constant Kd turned out to be 510 nM, the fold increase in affinity upon 488 nm illumination against before was found to be 2 fold and the fraction iLID-associated was found to be 45%.
Regarding SspB_(milli)-Halo labelled with JFX549, the median bound time t (bound) in experiment [2] was 175 ms. Further, the fraction iLID-associated in experiment [3] was determined as 6%; in experiment [4], 7%.
The substance SspB_(nano)-Halo labelled with JFX549 registered a median bound time t (bound) in experiment [2] of 350 ms. In addition, the fraction slowly diffusing (iLID-associated) was 56% in experiment [5] and 48% in experiment [4]. The same substance registered a fraction of molecules at the membrane in experiment [6] greater than 80%.

Source of the values: doi:10.1101/2022.07.10.499479.
